Laboratory results as given in PMC4865677, “Dataset of gene cloning and gel filtration chromatography of R-est6” (Data in Brief, 2016).

Biological target: the molecule itself
Assay: SEC; Ni-NTA affinity purified R-est6 loaded on a Superdex 75 column calibrated with known molecular weight markers; protein in peak 1 and peak 2 confirmed as R-est6 on SDS-PAGE

B1: R-est6, family 6 carboxylesterase from Methylococcus capsulatus (bath) (enzyme, Methylococcus capsulatus (bath strain), UniProt Q60CN0 1-336, looked up)
chain: MSTFDRGFARLLLEICRYTYAKAFALAPEEGDALQWIEQQGGKPDPASLEPIRGGDTSVACVFRYPDKNVVAYMGTKTEFDNAVNAKDSIEDWLNNFRAAPVPFKLGKEHLGLDKEVELPGRVHAGFLSELKAVQAKVIDVLSKNGGKDKPLYLTGHSQGGAEATLATVALLAGGFKVAATYTFAAPRAGDRTFADAVPAEFPFHRIEFGDDIVPHVPPTLLSRWVKTLVTVPRHLPLKRFGVPVKVNEFLELSVHDLGYVGVGRLCYGNHESGQLHVDMSVRQEASLFLGRLTRLLRHPEHWAEHHHLAGTRAEVSAGKKGNYTALVSDFPIVEG
notes: also called MCA0075
- binding result: binds
